This passage reports amyloid nucleation score results from the supplement of paper PMC12042874.

± gives the uncertainty stated by the source.

The nature of the data set: amyloid nucleation score (Sup35N fusion, yeast selection) (log enrichment); library NNK1; higher = more nucleation; inactive = no reads after selection. In a few lines: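 Random libraries were run with three technical output replicates. In each, psi-negative yeast expressing Sup35N fused to peptides of 20 random codons were induced 24 hours with 100 μM copper sulfate and grown 7 days at 30°C on medium lacking adenine and uracil, and input and output plasmid inserts were Illumina-sequenced. The nucleation score is the DiMSum log enrichment of output over input reads, centred on the mode score of non-aggregating sequences, and sequences under 100 input reads were excluded.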
Regarding VYSEVSFDF, the amyloid nucleation score entry was “inactive”. For VYSWNNYGDRKILMLFLTGY, the amyloid nucleation score turned out to be 4.63 ± 0.065.

As to VYTSTVMFEHMDRNMLMVKM, the amyloid nucleation score was 0.166 ± 0.21. The same measure for VYVDSCCHMF: 7.508 ± 0.069; for VYVIIWSIILGRTVAGWMYY: “inactive”; for VYWRFPRSNGEWYNMLVLKD: -0.576 ± 0.53.

Take VYWRREVSI: the amyloid nucleation score came to 0.312 ± 1.2. The same measure for WACMWAQSPYGAFFIVSMED: -0.223 ± 0.38; for WCGKACFVYKSHGQGG: 0.235 ± 0.53.

In turn, WCRCTINFRHEDLNPFFNPK registered an amyloid nucleation score of 2.01 ± 0.16. The same measure for WCRIVG: 0.227 ± 0.57; for WCWNAAQLSMVYSDMNFVAV: 0.675 ± 1. WDCYCPWLTLKYEAGLRTSG had an amyloid nucleation score of -1.17 ± 1.9. The same measure for WDWVYGKFLR: 0.736 ± 0.26.

Turning to WDYSRLLFAYNKIVTERNNG, the amyloid nucleation score is -0.356 ± 0.29. On to WEFRRWGLRLHLSFLASLGA, for which the amyloid nucleation score was -0.015 ± 0.25.

As for WEGGGMGNYVQRHACARHKV, the amyloid nucleation score turned out to be 0.125 ± 0.3. The substance WEWIQDVWVPHISDPLSWAI gave an amyloid nucleation score of -1.2 ± 0.83.

Turning to WFSINIGKMGARVLSVGQDG, the amyloid nucleation score result is “inactive”. With WFVTFVWVSSVRTILP, the amyloid nucleation score stood at 0.361 ± 1. The same measure for WFWIMIFRHCNVIL: 0.404 ± 0.5; for WFYTVARPNVSSSLESRTEP: 0.137 ± 0.22; for WGIFSMYHWRYAVRDRSMHS: “inactive”. The substance WGPRSVNGTLRI had an amyloid nucleation score of -0.488 ± 0.32. Turning to WGQFYVLTSVLHYINQWH, the amyloid nucleation score was -2.58 ± 2.7. With WGQTWDVFY, the amyloid nucleation score was 0.916 ± 0.46.

For the substance WGTLVIGCFVHTVNLHNRKR, the amyloid nucleation score was 6.809 ± 0.048. WHFFVKKRVRCDSHSSMQWN returned an amyloid nucleation score of -0.677 ± 0.69.

WHPYYIQVKGILALLSSVHH showed an amyloid nucleation score of 3.18 ± 0.073. Consider WHSISYF, for which the amyloid nucleation score result was “inactive”.

For the substance WIATC, the amyloid nucleation score was determined as 0.214 ± 0.29. WICMAP came in with an amyloid nucleation score of 3.42 ± 0.089.

WIGGVKG came in with an amyloid nucleation score of -0.427 ± 0.72. The substance WIGNRVSSMFDGTGS showed an amyloid nucleation score of 0.538 ± 0.55. Consider WIHACK, for which the amyloid nucleation score came to 0.778 ± 0.45.

WIKLRLGFKRSFIPECGFLG came in with an amyloid nucleation score of -0.208 ± 0.54. As for WIMKGY, the amyloid nucleation score was -0.123 ± 1.1. As for WINYRRDPTAHSNSYFRVGI, the amyloid nucleation score is 0.059 ± 0.58. The substance WIVSFMAIRH returned an amyloid nucleation score of 1.51 ± 0.25. Substance WIYGWACWYCNLNDSTRVGK displayed an amyloid nucleation score of 5.798 ± 0.047. For the substance WKASFIRFWFVAIMFMYNLC, the amyloid nucleation score is -0.1 ± 0.42. WKRSEINDVFVM: the amyloid nucleation score entry is “inactive”. The substance WKYIMHLSRFYVFPCSTERG displayed an amyloid nucleation score of 0.112 ± 0.87. The substance WLAFWCDLGVSSSFFWAFCG displayed an amyloid nucleation score of -0.066 ± 0.37. The same measure for WLLTNPPLIVFTVRRNSRFS: -1.09 ± 1.9. In the case of WLQTTYLGLFMVFTGFEGY, the amyloid nucleation score was -0.586 ± 0.55. WMEVHWGGNVSLDSSYMELF came in with an amyloid nucleation score of -0.044 ± 1.1. The same measure for WNASMQSTGWFDILIYMCPV: 3.19 ± 0.11. Turning to WNDSYRINSTGCHDCLYRLF, the amyloid nucleation score is -0.37 ± 0.3. The substance WNHFERMEKPA yielded an amyloid nucleation score of -0.639 ± 1.2.

With WNYTLGRCRTLGYAVAVLDI, the amyloid nucleation score was -0.389 ± 1.

WPELIFNGVPMSSCVLPGLF had an amyloid nucleation score of 1.12 ± 0.6. As to WPNNRVQFCSCGSRFSCLGS, the amyloid nucleation score is 0.933 ± 0.85. In the case of WPPMQGLSLSSLSSINHPHT, the amyloid nucleation score worked out at 0.76 ± 1.1. With WPRNFYFMFRCLGMAAREMC, the amyloid nucleation score was 0.285 ± 0.63. The same measure for WQHSPTYGYLYIHC: 0.633 ± 0.18. For the substance WRAYFACYNILESAFLLVQL, the amyloid nucleation score entry was “inactive”. WRLSLYPQPLGLWAEATLDT registered an amyloid nucleation score of -0.209 ± 0.53. Take WRSNI: the amyloid nucleation score is -0.151 ± 0.49.

Substance WRVSMFGLSESLDRLPCKDL registered an amyloid nucleation score of -0.371 ± 0.45. The substance WSFLANFNWMN gave an amyloid nucleation score of 0.157 ± 1.4. Substance WSFQPGRVVFHMFERGDHCC showed an amyloid nucleation score of 0.187 ± 0.4. The same measure for WSGIVFRIEGVAYVVHVNDA: 1.17 ± 0.18. The same measure for WSLDSNKSWSCFKCLCFYCG: 6.223 ± 0.054; for WSRTDRDDLLVYMKLPRHVY: 0.472 ± 0.37; for WTCMKSFVMWQSLDFVHFIA: 0.85 ± 0.98.

Substance WTRKS yielded an amyloid nucleation score of -0.067 ± 0.35. Consider WTRSFRAFGSSVYWEGRGNH, for which the amyloid nucleation score turned out to be 1.22 ± 0.26. The substance WVHWWFRHVNMACQNGGFIF displayed an amyloid nucleation score of -0.565 ± 0.68. The same measure for WVILVNDGVNVCCFSVRVWA: -0.903 ± 2.4; for WVLWYSLLLTDGGDLIESTW: -0.156 ± 0.23; for WVNGMYQGRNEYDEKI: -0.455 ± 0.56. The same measure for WVPGITVKMRYGPESIVDWR: 0.565 ± 1.1; for WVSFCNFDGKKFGAVRAHYY: -2 ± 0.97. The same measure for WVSKNRSSFMGCSSFTATWT: 0.884 ± 0.69.

As for WVSSDITGRG, the amyloid nucleation score was 1.87 ± 0.65. As to WVWFCNEF, the amyloid nucleation score was -0.307 ± 0.57. The substance WVWLHDKASLNLL returned an amyloid nucleation score of 0.007 ± 0.72. WWRIIGTEAQNMGG gave an amyloid nucleation score of 0.631 ± 0.55. The substance WYENMFN registered an amyloid nucleation score of 3.15 ± 0.14. WYEVRYMLTQSYRVHMLFLI displayed an amyloid nucleation score of -0.322 ± 1.7. The same measure for WYKSYVITFITDTLVVDRET: 2.41 ± 0.16; for WYNGNKSHGRRVPGVQPRAL: -0.046 ± 0.46. WYRGMHLVARRFMTYLARKY gave an amyloid nucleation score of 1.32 ± 0.65. In the case of WYRQSAFNVLTDSLIILLVC, the amyloid nucleation score came out at 4.99 ± 0.07. As to WYVFLYFGCEKAMALSTNMT, the amyloid nucleation score entry is “inactive”. As for WYVMRLKLVCI, the amyloid nucleation score was 0.156 ± 0.87. For WYYITS, the amyloid nucleation score worked out at 0.295 ± 0.67.

For the substance YAERLIRKWS, the amyloid nucleation score stood at 0.06 ± 0.28.

In turn, YAIRHLKIGSGWWSLWMSSM had an amyloid nucleation score of -0.522 ± 0.34. As to YAISGAGYMLF, the amyloid nucleation score was 0.027 ± 1.7. In turn, YAKHCAEGYGFLGWSLWAVR displayed an amyloid nucleation score of 0.106 ± 0.34. In the case of YASTPWYYMCWFIWAYCFSS, the amyloid nucleation score result is “inactive”. In turn, YCGGRKG showed an amyloid nucleation score of 0.144 ± 0.34. YCLFNLESG returned an amyloid nucleation score of 0.315 ± 0.53. The substance YCMRFVQ gave an amyloid nucleation score of 1.52 ± 0.49. In turn, YCSTSYRSSHNRSGVWKGTL returned an amyloid nucleation score of 1.62 ± 0.55. Substance YCTGSRVVPDGSLVYATCNM displayed an amyloid nucleation score of 0.895 ± 0.65. The substance YCTVVKFLHATFQFSNPLGM yielded an amyloid nucleation score of 1.58 ± 0.48.

On to YDFVIFLGHDACEIYCFLRS, for which the amyloid nucleation score was found to be 0.935 ± 0.56.

For YDIQVISPPSKM, the amyloid nucleation score came to 0.202 ± 0.31. On to YECGFLLSLVRATKLLNSAC, for which the amyloid nucleation score came to 0.146 ± 0.28. YEFMWRVNTLWRENLFYSGR: the amyloid nucleation score worked out at 0.156 ± 0.59.

In the case of YEFVRRDHVPFRLGMSNPED, the amyloid nucleation score was 1.76 ± 0.53. With YELDWWSLLQE, the amyloid nucleation score is 1.12 ± 0.4.

Consider YFAAVIRRFGWTDIERSHQC, for which the amyloid nucleation score worked out at 0.233 ± 0.79. Turning to YFLTFRFCFSVNEVIDPWCA, the amyloid nucleation score is -0.725 ± 1.1.

With YFPIGYFVRKEDYGTCENDD, the amyloid nucleation score was 0.386 ± 0.31. Take YFQTRSAKRVCSNQIHVLRW: the amyloid nucleation score was found to be 3.08 ± 0.12. YFRLHSFFFVESQGICVELR yielded an amyloid nucleation score of -0.251 ± 0.69. Regarding YFRYWNSLIGIKDSD, the amyloid nucleation score was 1.17 ± 0.39. The substance YFSDIAMWHSEIVR displayed an amyloid nucleation score of -0.605 ± 0.73.

The substance YFSQPMLLRSSGRAVNSRMR showed an amyloid nucleation score of -1.66 ± 2.4. For the substance YFVQYLYTLMLACYYWVISY, the amyloid nucleation score was -1.61 ± 1.4. For YGFCGLMHSNSIHYSNMQSR, the amyloid nucleation score was 0.685 ± 0.48. Take YGFLVKS: the amyloid nucleation score worked out at 0.1 ± 0.9. Substance YGGIVNDVFAGLQNIMGVAL showed an amyloid nucleation score of 0.334 ± 0.54.

On to YGKWWWVYRKTSVRRGDGAG, for which the amyloid nucleation score was determined as 0.49 ± 0.54. As to YGLATFMGKES, the amyloid nucleation score was -0.104 ± 0.85.

As for YGLFWN, the amyloid nucleation score was -1.37 ± 1.5. In turn, YGTRVFIGSIRYFRTEEAKI yielded an amyloid nucleation score of 0.35 ± 0.72. For the substance YGYAAYVDMRSGL, the amyloid nucleation score is -0.257 ± 0.33. On to YHNCDKDAANLFYCQ, for which the amyloid nucleation score amounted to 2.01 ± 0.47. The same measure for YHWILKSCLWMVWSSVYLPI: -0.663 ± 1.7; for YIAQSFELKA: 0.23 ± 0.53; for YIDIVSQKC: 0.922 ± 0.62. With YIGTKCWNANHVVLLLFCRG, the amyloid nucleation score was -0.127 ± 0.32. In turn, YIIYGWVEIF registered an amyloid nucleation score of -1.14 ± 2.1. Substance YIKMIR displayed an amyloid nucleation score of -0.759 ± 0.97. Consider YILPFFGRHYNRHGVFAGAM, for which the amyloid nucleation score was -0.647 ± 0.9. For the substance YILSFFCVVEARDFFVDFEM, the amyloid nucleation score was determined as 5 ± 0.062.

Take YILWNHNGLNGWGFAGITLF: the amyloid nucleation score was -0.994 ± 0.51. The substance YIPFGLIYHGKLG showed an amyloid nucleation score of -0.969 ± 2.1. YIRGNFYSYQWGNCFMGNFC displayed an amyloid nucleation score of 7.792 ± 0.05. The same measure for YIRNTLTPEMVNWRDLRVPR: -0.152 ± 0.73. The same measure for YISEM: 0.544 ± 0.35; for YISLRFISYYYYVRGKFYMK: 0.672 ± 0.56; for YIWQGTRFQRGNRIYIGSQG: 0.271 ± 0.54. The same measure for YKCMSKIFQFLVWAGEEWGL: -0.398 ± 1.1.

In turn, YKGRTPSSRLASLVCRGG displayed an amyloid nucleation score of -0.198 ± 0.64.

In the case of YKHKTFIPRFTYNETVVYYV, the amyloid nucleation score was 4.85 ± 0.087.
